Values of other authors as cited in paper PMC7652413.

Target: SARS-CoV-2 spike protein RBD (Severe acute respiratory syndrome coronavirus 2) (UniProt P0DTC2)
Assay: SPR

In the case of CD147 (basigin) (from UniProt P35613), the Kd is listed as 185 nM.
